In the supplement of paper PMC10065799, “High-throughput profiling of sequence recognition by tyrosine kinases and SH2 domains using bacterial peptide display” (eLife, 2023):

Molecular target: SHP2-C SH2
Experiment: SH2 binding enrichment of the phosphorylated peptide, bacterial display (enrichment ratio); higher = better substrate or ligand; peptides without Tyr show the background
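For SH2 binding enrichment of the phosphorylated peptide, bacterial display in this document: peptide library displayed on the E. coli surface as eCPX fusions, selected cells deep-sequenced, score is each peptide's frequency after selection divided by its frequency in the input.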
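For phosphorylation enrichment, bacterial display in this document: 11-residue human phosphosite peptides and single-mutation variants displayed on the E. coli surface, counted by deep sequencing, each peptide's frequency after selection divided by its frequency in the unselected input library; frequency after pTyr selection over input frequency; kinase dosed for 20-30% of maximal phosphorylation in three min.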

Sequence	SH2 binding enrichment
GLSDLYVKIHL [SYT2_Y309_P308L]	0.599
EQSGSYIWVPA [DLG1_Y895]	0.604
PIYEGYALPHA [ACTA1_Y171]	0.617
LTVVIYVLIGR [EPHA3_Y561]	1.36
NFDRIYIFHLR [MYOF_Y1137_V1136I_YF]	2.07
SQQTFCRVSNM [ABCD1_Y181_Y181C_YF]	0.713
ERCAQYKKDGA [ALDOA_Y138]	0.623
FEPWVYSLSYE [PRKDC_Y647_F649L]	0.568
DPTNTYARPAE [SGMS2_Y24]	0.698
KDAGDYKCKAK [LRIT3_Y326]	0.767
EKAEVYRSENE [RIOK2_Y348_G349R]	0.653
EGTGHYLCNAC [GATA5_Y208_D203E]	0.81
DSILVYQRKEQ [USH2A_Y1909_G1911R]	1.18
LIHTKCPQLLP [AHCY_Y143_Y143C]	0.762
LNEAVYTKMMT [G6PD_Y401_P396L]	0.414
KKARAYRPGIE [FLNA_Y287_G288R]	0.606
KRISCYEARYQ [PFKFB3_Y194_S197R]	0.682

Sequence	SH2 binding enrichment
ADARMYGVLPW [PLP1_Y207]	0.7
RMSQRYGDVLQ [CYP1A2_Y72]	0.518
LIFTNYEVGKD [GSTP1_Y112_A114V_YF]	0.784
RQSTLYSFFPK [MSH6_Y8]	1.19
LADKPYTFEDF [FXN_Y118_YF]	0.954
NGRQCYSCRGN [PLAUR_Y217_K220R]	0.769
HEEKVYLSRGD [CRACR2A_Y141]	0.495
PPTFRYERGSR [INPPL1_Y663_YF]	0.318
TDTQLYGRFGS [ITGA2B_Y384_G380D]	0.656
YRNKPYISWPS [CDC42BPB_Y1638_S1633Y]	1.64
LERYIYNREEF [HLA-DPB1_Y59]	0.698
LFNQDYPIHSV [GATM_Y227_YF]	0.725
RAADYYSQQMA [GBP6_Y334]	0.63
QRIFQYIQSRF [DYRK1B_Y273_YF]	1.17
SVTCTYSPTLN [TP53_Y126_A129T]	0.551
EWQQIYTYDSG [JUP_Y20_T19I]	0.734

Molecular target: Grb2 SH2 (UniProt P62993)
Experiment: as above

Grb2 SH2, sequence (P62993 whole entry, looked up): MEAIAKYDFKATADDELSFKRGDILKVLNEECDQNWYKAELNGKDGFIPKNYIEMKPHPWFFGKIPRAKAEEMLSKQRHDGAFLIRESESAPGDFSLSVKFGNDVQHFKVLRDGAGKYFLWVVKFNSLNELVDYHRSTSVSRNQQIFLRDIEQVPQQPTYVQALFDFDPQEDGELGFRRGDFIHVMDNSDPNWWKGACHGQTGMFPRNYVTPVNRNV

Sequence	SH2 binding enrichment
GLSDLYVKIHL [SYT2_Y309_P308L]	1.04
EQSGSYIWVPA [DLG1_Y895]	0.925
PIYEGYALPHA [ACTA1_Y171]	0.72
LTVVIYVLIGR [EPHA3_Y561]	1.64
NFDRIYIFHLR [MYOF_Y1137_V1136I_YF]	1.59
SQQTFCRVSNM [ABCD1_Y181_Y181C_YF]	0.808
ERCAQYKKDGA [ALDOA_Y138]	1.06
FEPWVYSLSYE [PRKDC_Y647_F649L]	0.812
DPTNTYARPAE [SGMS2_Y24]	0.729
KDAGDYKCKAK [LRIT3_Y326]	1.4
EKAEVYRSENE [RIOK2_Y348_G349R]	0.94
EGTGHYLCNAC [GATA5_Y208_D203E]	1.09
DSILVYQRKEQ [USH2A_Y1909_G1911R]	0.939
LIHTKCPQLLP [AHCY_Y143_Y143C]	0.941
LNEAVYTKMMT [G6PD_Y401_P396L]	0.659
KKARAYRPGIE [FLNA_Y287_G288R]	0.761
KRISCYEARYQ [PFKFB3_Y194_S197R]	0.915

Sequence	SH2 binding enrichment
ADARMYGVLPW [PLP1_Y207]	1.05
RMSQRYGDVLQ [CYP1A2_Y72]	0.788
LIFTNYEVGKD [GSTP1_Y112_A114V_YF]	0.887
RQSTLYSFFPK [MSH6_Y8]	1.47
LADKPYTFEDF [FXN_Y118_YF]	1.1
NGRQCYSCRGN [PLAUR_Y217_K220R]	1.03
HEEKVYLSRGD [CRACR2A_Y141]	0.812
PPTFRYERGSR [INPPL1_Y663_YF]	0.503
TDTQLYGRFGS [ITGA2B_Y384_G380D]	0.734
YRNKPYISWPS [CDC42BPB_Y1638_S1633Y]	1.87
LERYIYNREEF [HLA-DPB1_Y59]	0.956
LFNQDYPIHSV [GATM_Y227_YF]	1.21
RAADYYSQQMA [GBP6_Y334]	1.01
QRIFQYIQSRF [DYRK1B_Y273_YF]	1.15
SVTCTYSPTLN [TP53_Y126_A129T]	0.639
EWQQIYTYDSG [JUP_Y20_T19I]	0.885

Molecular target: c-Src SH2
Experiment: as above

Sequence	SH2 binding enrichment
GLSDLYVKIHL [SYT2_Y309_P308L]	0.567
EQSGSYIWVPA [DLG1_Y895]	0.682
PIYEGYALPHA [ACTA1_Y171]	2.12
LTVVIYVLIGR [EPHA3_Y561]	0.918
NFDRIYIFHLR [MYOF_Y1137_V1136I_YF]	1.15
SQQTFCRVSNM [ABCD1_Y181_Y181C_YF]	0.502
ERCAQYKKDGA [ALDOA_Y138]	0.635
FEPWVYSLSYE [PRKDC_Y647_F649L]	0.674
DPTNTYARPAE [SGMS2_Y24]	2
KDAGDYKCKAK [LRIT3_Y326]	0.83
EKAEVYRSENE [RIOK2_Y348_G349R]	0.502
EGTGHYLCNAC [GATA5_Y208_D203E]	0.445
DSILVYQRKEQ [USH2A_Y1909_G1911R]	0.552
LIHTKCPQLLP [AHCY_Y143_Y143C]	0.714
LNEAVYTKMMT [G6PD_Y401_P396L]	1.61
KKARAYRPGIE [FLNA_Y287_G288R]	0.469
KRISCYEARYQ [PFKFB3_Y194_S197R]	0.591

Sequence	SH2 binding enrichment
ADARMYGVLPW [PLP1_Y207]	0.443
RMSQRYGDVLQ [CYP1A2_Y72]	0.294
LIFTNYEVGKD [GSTP1_Y112_A114V_YF]	0.739
RQSTLYSFFPK [MSH6_Y8]	1.03
LADKPYTFEDF [FXN_Y118_YF]	0.708
NGRQCYSCRGN [PLAUR_Y217_K220R]	1.31
HEEKVYLSRGD [CRACR2A_Y141]	0.366
PPTFRYERGSR [INPPL1_Y663_YF]	0.336
TDTQLYGRFGS [ITGA2B_Y384_G380D]	0.418
YRNKPYISWPS [CDC42BPB_Y1638_S1633Y]	1.29
LERYIYNREEF [HLA-DPB1_Y59]	0.634
LFNQDYPIHSV [GATM_Y227_YF]	0.432
RAADYYSQQMA [GBP6_Y334]	0.545
QRIFQYIQSRF [DYRK1B_Y273_YF]	0.9
SVTCTYSPTLN [TP53_Y126_A129T]	0.469
EWQQIYTYDSG [JUP_Y20_T19I]	0.968

Molecular target: Jak2 (UniProt O60674)
Experiment: phosphorylation enrichment, bacterial display (enrichment ratio); higher = better substrate or ligand; peptides without Tyr show the background

Jak2, sequence (O60674 whole entry, looked up): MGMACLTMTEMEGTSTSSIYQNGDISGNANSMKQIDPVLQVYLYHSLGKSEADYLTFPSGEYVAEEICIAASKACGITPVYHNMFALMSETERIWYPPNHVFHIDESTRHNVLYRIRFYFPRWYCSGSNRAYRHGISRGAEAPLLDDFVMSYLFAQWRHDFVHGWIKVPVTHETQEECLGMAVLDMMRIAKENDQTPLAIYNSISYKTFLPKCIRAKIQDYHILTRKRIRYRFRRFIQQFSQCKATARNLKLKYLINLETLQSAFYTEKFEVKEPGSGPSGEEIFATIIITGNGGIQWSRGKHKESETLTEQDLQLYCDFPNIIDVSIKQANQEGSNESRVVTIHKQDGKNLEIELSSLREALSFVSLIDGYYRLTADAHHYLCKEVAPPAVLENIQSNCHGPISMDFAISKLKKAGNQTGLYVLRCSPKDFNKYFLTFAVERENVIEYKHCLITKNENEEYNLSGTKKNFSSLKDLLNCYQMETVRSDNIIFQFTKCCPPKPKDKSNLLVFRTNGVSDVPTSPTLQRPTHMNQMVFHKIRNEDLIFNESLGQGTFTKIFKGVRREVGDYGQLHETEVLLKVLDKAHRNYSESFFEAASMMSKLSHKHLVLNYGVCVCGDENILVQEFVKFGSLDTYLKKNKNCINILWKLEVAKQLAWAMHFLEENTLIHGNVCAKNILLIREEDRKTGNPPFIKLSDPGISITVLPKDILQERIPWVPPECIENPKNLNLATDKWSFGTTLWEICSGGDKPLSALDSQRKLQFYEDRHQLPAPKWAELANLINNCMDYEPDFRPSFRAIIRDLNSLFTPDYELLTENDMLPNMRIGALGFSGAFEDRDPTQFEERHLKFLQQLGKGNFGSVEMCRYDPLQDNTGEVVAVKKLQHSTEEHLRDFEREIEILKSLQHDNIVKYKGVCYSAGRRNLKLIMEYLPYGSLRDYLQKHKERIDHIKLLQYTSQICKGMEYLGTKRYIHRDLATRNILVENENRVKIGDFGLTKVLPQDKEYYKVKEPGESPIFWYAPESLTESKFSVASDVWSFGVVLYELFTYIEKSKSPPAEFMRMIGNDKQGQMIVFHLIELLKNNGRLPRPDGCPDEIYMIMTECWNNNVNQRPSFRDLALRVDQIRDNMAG

Sequence	phosphorylation enrichment
GLSDLYVKIHL [SYT2_Y309_P308L]	1.38
EQSGSYIWVPA [DLG1_Y895]	1.19
PIYEGYALPHA [ACTA1_Y171]	1.4
LTVVIYVLIGR [EPHA3_Y561]	0.844
NFDRIYIFHLR [MYOF_Y1137_V1136I_YF]	1.46
SQQTFCRVSNM [ABCD1_Y181_Y181C_YF]	0.554
ERCAQYKKDGA [ALDOA_Y138]	0.622
FEPWVYSLSYE [PRKDC_Y647_F649L]	1.33
DPTNTYARPAE [SGMS2_Y24]	0.639
KDAGDYKCKAK [LRIT3_Y326]	0.579
EKAEVYRSENE [RIOK2_Y348_G349R]	0.863
EGTGHYLCNAC [GATA5_Y208_D203E]	0.505
DSILVYQRKEQ [USH2A_Y1909_G1911R]	0.7
LIHTKCPQLLP [AHCY_Y143_Y143C]	0.654
LNEAVYTKMMT [G6PD_Y401_P396L]	1.15
KKARAYRPGIE [FLNA_Y287_G288R]	0.565
KRISCYEARYQ [PFKFB3_Y194_S197R]	0.735

Sequence	phosphorylation enrichment
ADARMYGVLPW [PLP1_Y207]	0.7
RMSQRYGDVLQ [CYP1A2_Y72]	0.744
LIFTNYEVGKD [GSTP1_Y112_A114V_YF]	1.94
RQSTLYSFFPK [MSH6_Y8]	0.685
LADKPYTFEDF [FXN_Y118_YF]	0.988
NGRQCYSCRGN [PLAUR_Y217_K220R]	0.39
HEEKVYLSRGD [CRACR2A_Y141]	0.784
PPTFRYERGSR [INPPL1_Y663_YF]	0.692
TDTQLYGRFGS [ITGA2B_Y384_G380D]	0.645
YRNKPYISWPS [CDC42BPB_Y1638_S1633Y]	0.697
LERYIYNREEF [HLA-DPB1_Y59]	0.874
LFNQDYPIHSV [GATM_Y227_YF]	0.707
RAADYYSQQMA [GBP6_Y334]	0.672
QRIFQYIQSRF [DYRK1B_Y273_YF]	1.58
SVTCTYSPTLN [TP53_Y126_A129T]	1.4
EWQQIYTYDSG [JUP_Y20_T19I]	1
